Data: article PMC8286842, “The structures of E. coli NfsA bound to the antibiotic nitrofurantoin; to 1,4-benzoquinone and to FMN” (Biochemical Journal, 2021)

How the values were obtained:
Type in all cases: biochemical, Escherichia coli
[1] = substrate: NC(=O)C1=CN([C@@H]2O[C@H](COP(=O)(O)OP(=O)(O)OC[C@H]3O[C@@H](n4cnc5c(N)ncnc54)[C@H](OP(=O)(O)O)[C@@H]3O)[C@@H](O)[C@H]2O)C=CC1; experiment: steady-state kinetics, purified enzyme (global ping-pong fit with nitrofurantoin); conditions: FMN; pH 7.0; 25.0 °C; varied: cofactor
[2] = substrate: NC(=O)c1cc(N2CC2)c([N+](=O)[O-])cc1[N+](=O)[O-]; experiment: steady-state kinetics of reduction by NADPH, purified enzyme; conditions: FMN; pH 7.0; 25.0 °C
[3] = substrate: NC(=O)N/N=C/c1ccc([N+](=O)[O-])o1; experiment: as above; conditions: FMN; pH 7.0; 25.0 °C
[4] = substrate: CC1=CC(=O)c2ccccc2C1=O; experiment: purified protein; conditions: FMN; pH 7.0; 25.0 °C
[5] = substrate: O=C1C=CC(=O)C=C1; experiment: purified protein; conditions: FMN active site, stacked on FMN; O2′ hydroxyl of FMN, backbone NH of Ser […], Gln […], close to Arg […]; a separate, additional quinol ring appears covalently attached at Cys […]; pH 7.0; 25.0 °C
[6] = substrate: O=C1CN(/N=C/c2ccc([N+](=O)[O-])o2)C(=O)N1; experiment: purified protein; conditions: FMN active site, parallel to the FMN ring; hydrogen bonds involving Arg […], Lys […], Arg […] and Ser […]; pH 7.0; 25.0 °C

B1: NfsA (Escherichia coli K-12) (protein)
chain: MTPTIELICGHRSIRHFTDEPISEAQREAIINSARATSSSSFLQCSSIIRITDKALREELVTLTGGQKHVAQAAEFWVFCADFNRHLQICPDAQLGLAEQLLLGVVDTAMMAQNALIAAESLGLGGVYIGGLRNNIEAVTKLLKLPQHVLPLFGLCLGWPADNPDLKPRLPASILVHENSYQPLDKGALAQYDEQLAEYYLTRGSNNRRDTWSDHIRRTIIKESRPFILDYLHKQGWATR
notes: untagged, dimer
What does the source list for B1?
Km [1]: 10.9 ± 1.6 (Km) µM; kcat [1]: 81 ± 3 s⁻¹; kcat/Km [1]: 7.4e+06 ± 1e+06 M⁻¹ s⁻¹; Km [2]: 190 ± 20 (Km) µM; kcat [2]: 42 ± 1 s⁻¹; kcat/Km [2]: 230000 ± 2000 M⁻¹ s⁻¹; Km [3]: 13 ± 2 (Km) µM; kcat [3]: 29.6 ± 0.9 s⁻¹; kcat/Km [3]: 2.3e+06 ± 200000 M⁻¹ s⁻¹; Km [4]: 11 ± 2 (Km app) µM; kcat [4]: 9 ± 0.4 s⁻¹; kcat/Km [4]: 820000 ± 80000 M⁻¹ s⁻¹; Km [5]: 3 ± 0.4 (Km app) µM; kcat [5]: 24 ± 0.8 s⁻¹; kcat/Km [5]: 8e+06 ± 800000 M⁻¹ s⁻¹; Km [6]: 20.6 ± 1.6 (Km) µM; kcat [6]: 81 ± 3 s⁻¹; kcat/Km [6]: 3.9e+06 ± 200000 M⁻¹ s⁻¹
